Data taken from patent US7049398B1, “Melanocortin metallopeptide constructs, combinatorial libraries and applications” (Palatin Technologies, Inc., priority 1999, dated 2006).
Primed or numbered codes have the meaning given here. [ ]: non-standard residue; d: D form. The star is where a group is joined. Hydrocinnamoyl = O=C(CCc1ccccc1)*; Nle = CCCC[C@H](N)C(=O)O; 2Abz = Nc1ccccc1C(=O)O; Bz′ = not defined here

What was measured:
hMC4-R = biological target: T1, hMC4-R (Homo sapiens, UniProt P32245); test: Competitive inhibition binding assay, 125I-NDP-alpha-MSH, hMC4-R membranes; conditions: 0.4 nM 125I-NDP-alpha-MSH
T1 construct: expressed in transfected cells; host or cells: 293 cells
T1 sequence (P32245 whole entry): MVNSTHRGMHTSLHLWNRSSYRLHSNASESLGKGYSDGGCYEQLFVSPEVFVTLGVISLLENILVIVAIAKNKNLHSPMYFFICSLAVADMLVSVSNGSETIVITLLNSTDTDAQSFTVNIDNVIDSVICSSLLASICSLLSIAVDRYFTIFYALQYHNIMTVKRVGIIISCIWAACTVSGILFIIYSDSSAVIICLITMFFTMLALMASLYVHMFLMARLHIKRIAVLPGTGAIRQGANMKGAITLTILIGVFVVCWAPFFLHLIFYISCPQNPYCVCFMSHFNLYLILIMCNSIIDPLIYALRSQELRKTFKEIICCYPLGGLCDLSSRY
Method: (§1) Representative Peptides of this Invention. Representative peptides of this invention were made using library and synthesis methods described herein, and selected peptides were tested using a binding assay. […] The peptides were synthesized using conventional peptide synthesis methods, and were complexed with rhenium using the methods described herein.
(§2) The competitive inhibition binding assay was conducted using membranes prepared from hMC4-R and B-16 mouse melanoma cells (containing MC1-R) using 0.4 nM ^125I-NDP-alpha-MSH (New England Nuclear, Boston, Mass., USA) in 50 mM HEPES buffer containing 1 mM MgCl2, 2 mM CaCl2, and 5 mM KCl, at pH 7.2. The assay tube also contained a chosen concentration of the test peptide of this invention, complexed to a rhenium metal ion as indicated, for determining its efficacy in inhibiting the binding of ^125I-NDP-alpha-MSH to its receptor. Non-specific binding was measured by complete inhibition of binding of ^125I-NDP-alpha-MSH in the assay with the presence of 1 μM alpha-MSH. Incubation was for 90 minutes at room temperature, after which the assay mixture was filtered and the membranes washed three times with ice cold buffer. The filter was dried and counted in a gamma counter for remaining radioactivity bound to the membranes. 100% specific binding was defined as the difference in radioactivity (cpm) bound to cell membranes in the absence and presence of 1 μM alpha-MSH. The cpm obtained in presence of test compounds were normalized with respect to 100% specific binding to determine the percent inhibition of ^125I-NDP-alpha MSH binding. […]

[1] = biological target: T2, MC1-R (B-16 mouse melanoma cells) (Mus musculus, UniProt Q01727); test: Competitive inhibition binding assay, 125I-NDP-alpha-MSH, B-16 mouse melanoma cell membranes; conditions: 0.4 nM 125I-NDP-alpha-MSH
T2 construct: B-16 mouse melanoma cells (containing MC1-R); endogenous in cells; host or cells: B-16 mouse melanoma cells
T2 sequence (Q01727 whole entry): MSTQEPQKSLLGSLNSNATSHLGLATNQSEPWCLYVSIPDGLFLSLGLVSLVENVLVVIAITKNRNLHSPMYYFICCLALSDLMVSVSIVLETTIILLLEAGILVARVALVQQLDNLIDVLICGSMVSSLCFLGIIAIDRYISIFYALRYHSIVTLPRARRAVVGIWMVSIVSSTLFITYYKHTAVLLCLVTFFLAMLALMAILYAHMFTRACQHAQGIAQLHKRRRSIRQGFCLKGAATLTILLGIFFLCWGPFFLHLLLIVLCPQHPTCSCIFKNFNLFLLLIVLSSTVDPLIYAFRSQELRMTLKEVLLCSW
Method: as §1, §2

[2] = system: Human MC4-R or B-16 cells; test: cAMP stimulation assay in absence and presence of alpha-MSH; format: cell-based, human; mouse; conditions: 1 h 37° C., 0.2 mM IBMX
Method: For selected peptides of this invention, a cAMP assay was also performed. Human MC4-R or B-16 cells were grown to confluence in 96 well plates (plating approximately 250,000 cells per well). Identical sets of cells in triplicate were treated with 0.2 mM isobutylmethylxanthine (IBMX) and the chosen concentration of the rhenium metal ion-complexed peptide and the rhenium metal ion-complexed peptide in the presence of 20 nM alpha-MSH. Cells similarly treated but with only 20 nM alpha-MSH served as positive control. A buffer blank, as a negative control, was also included. Incubation was for one hour at 37° C. after which the medium was aspirated and the cells extarted with 150 microliters of HCl. Total cAMP accumulated in 100 microliters of this solution was quantitated using a commercially available low pH cAMP assay kit (R&D Systems) by the procedure specified by the kit supplier. […] The rhenium metal ion-complexed peptide showing cAMP accumulation in the same range as or higher than the positive control (buffer blank in the presence of alpha-MSH) are considered to be agonist ligands. The rhenium metal ion-complexed peptide showing accumulation in the same range as the negative control (buffer blank in the absence of alpha-MSH) are ineffective at the test concentration if the result is similar to the positive control where alpha-MSH is also present in the assay. The rhenium metal ion-complexed peptide showing accumulation in the same range as the negative control are considered to be antagonists if there is inhibition in cAMP when alpha-MSH is present in the assay. Values above the positive control are due to potent agonism, experimental variance or synergistic agonistic effects of rhenium metal ion-complexed peptide and alpha-MSH. […]

[3] = Conc. cut off 10 μM, hMC4-R membranes
[4] = Conc. cut off 10 μM, B-16 mouse melanoma cell membranes
[5] = 10 μM test compound + 20 nM alpha-MSH
[6] = 1 μM test compound + 20 nM alpha-MSH
[7] = Conc. cut off 1 μM test peptide

Row | Substance | cAMP Accumulation, Presence of α-MSH [2, 6] | cAMP Accumulation, Absence of α-MSH ([2]; 1 μM test compound) | % Inhibition MC4-R (hMC4-R; [7]) | % Inhibition MC1-R (B-16) [1, 7] | other results
1 | PL-838: metallopeptide of Table 1 (Ac-HFRCW-NH2; also: ReO[V] metal complex) | – | – | – | – | % Inhibition MC4-R (hMC4-R; [3]): 0%; % Inhibition MC1-R (B-16) [1, 4]: 35%; cAMP Accumulation, Presence of α-MSH [2, 5]: 53 pmol/mL; cAMP Accumulation, Absence of α-MSH ([2]; 10 μM test compound): 2 pmol/mL
2 | PL-1265: metallopeptide of Table 1 (Ac-EHGRWC-NH2; also: ReO[V] metal complex) | 127 pmol/mL | 3 pmol/mL | – | – | % Inhibition MC4-R (hMC4-R; Conc. cut off 1 μM, hMC4-R membranes): 67%; % Inhibition MC1-R (B-16) ([1]; Conc. cut off 1 μM, B-16 mouse melanoma cell membranes): 34%
3 | PL-1346: metallopeptide of Table 1 (Hydrocinnamoyl-HRCW-NH2; also: ReO[V] metal complex) | – | – | – | – | % Inhibition MC4-R (hMC4-R; [3]): 77%; % Inhibition MC1-R (B-16) [1, 4]: 86%; cAMP Accumulation, Presence of α-MSH [2, 5]: 76 pmol/mL; cAMP Accumulation, Absence of α-MSH ([2]; 10 μM test compound): 3 pmol/mL
4 | PL-1751: metallopeptide of Table 1 (Ac-HXRWC-NH2; not fully specified (residue 2); printed as Ac-L-His-L-(N-2′naphthalene)Phe-L-Arg-L-Trp-L-Cys-NH2; also: ReO[V] complex) | 96 pmol/mL | 71 pmol/mL | 70% | 78% | –
5 | PL-1842: metallopeptide of Table 1 (Ac-[Nle]AHRFWC-NH2; also: ReO[V] complex) | 76 pmol/mL | 25 pmol/mL | 2% | 27% | –
6 | PL-1863 (Ac-FFC[2Abz]K-NH2; also: ReO[V] complex) | – | – | 6% | 19% | –
7 | PL-1926 ({Bz′}-Arg-Trp-Cys-NH2; also: ReO[V] complex) | – | – | 7% | 25% | –
